Measured values as given in IntAct's records for PubMed 29997244.

B1: DnaJ homolog subfamily C member 5 (Homo sapiens), Q9H3Z4 (parent)
chain: MADQRQRSLSTSGESLYHVLGLDKNATSDDIKKSYRKLALKYHPDKNPDNPEAADKFKEINNAHAILTDATKRNIYDKYGSLGLYVAEQFGEENVNTYFVLSSWWAKALFVFCGLLTCCYCCCCLCCCFNCCCGKCKPKAPEGEETEFYVSPEDLEAQLQSDEREATDTPIVIQPASATETTQLTADSHPSYHTDGFN
partner: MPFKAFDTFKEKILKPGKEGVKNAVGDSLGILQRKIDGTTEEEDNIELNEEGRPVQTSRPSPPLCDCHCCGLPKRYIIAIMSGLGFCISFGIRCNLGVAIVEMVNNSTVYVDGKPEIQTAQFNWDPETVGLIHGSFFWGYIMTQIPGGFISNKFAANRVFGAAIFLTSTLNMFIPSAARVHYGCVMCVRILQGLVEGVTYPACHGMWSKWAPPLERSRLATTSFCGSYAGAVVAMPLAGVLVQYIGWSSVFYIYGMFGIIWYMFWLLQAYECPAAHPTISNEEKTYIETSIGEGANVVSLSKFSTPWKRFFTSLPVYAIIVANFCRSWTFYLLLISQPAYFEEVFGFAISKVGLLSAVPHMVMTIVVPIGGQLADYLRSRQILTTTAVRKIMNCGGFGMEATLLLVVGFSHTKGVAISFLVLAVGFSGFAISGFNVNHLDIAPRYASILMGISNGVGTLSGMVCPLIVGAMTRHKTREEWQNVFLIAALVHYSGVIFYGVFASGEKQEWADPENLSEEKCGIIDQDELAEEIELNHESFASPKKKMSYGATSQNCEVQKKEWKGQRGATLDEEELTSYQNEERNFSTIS
B2: DnaJ homolog subfamily C member 5 (Homo sapiens), Q9H3Z4 (parent)
chain: B1 chain
partner: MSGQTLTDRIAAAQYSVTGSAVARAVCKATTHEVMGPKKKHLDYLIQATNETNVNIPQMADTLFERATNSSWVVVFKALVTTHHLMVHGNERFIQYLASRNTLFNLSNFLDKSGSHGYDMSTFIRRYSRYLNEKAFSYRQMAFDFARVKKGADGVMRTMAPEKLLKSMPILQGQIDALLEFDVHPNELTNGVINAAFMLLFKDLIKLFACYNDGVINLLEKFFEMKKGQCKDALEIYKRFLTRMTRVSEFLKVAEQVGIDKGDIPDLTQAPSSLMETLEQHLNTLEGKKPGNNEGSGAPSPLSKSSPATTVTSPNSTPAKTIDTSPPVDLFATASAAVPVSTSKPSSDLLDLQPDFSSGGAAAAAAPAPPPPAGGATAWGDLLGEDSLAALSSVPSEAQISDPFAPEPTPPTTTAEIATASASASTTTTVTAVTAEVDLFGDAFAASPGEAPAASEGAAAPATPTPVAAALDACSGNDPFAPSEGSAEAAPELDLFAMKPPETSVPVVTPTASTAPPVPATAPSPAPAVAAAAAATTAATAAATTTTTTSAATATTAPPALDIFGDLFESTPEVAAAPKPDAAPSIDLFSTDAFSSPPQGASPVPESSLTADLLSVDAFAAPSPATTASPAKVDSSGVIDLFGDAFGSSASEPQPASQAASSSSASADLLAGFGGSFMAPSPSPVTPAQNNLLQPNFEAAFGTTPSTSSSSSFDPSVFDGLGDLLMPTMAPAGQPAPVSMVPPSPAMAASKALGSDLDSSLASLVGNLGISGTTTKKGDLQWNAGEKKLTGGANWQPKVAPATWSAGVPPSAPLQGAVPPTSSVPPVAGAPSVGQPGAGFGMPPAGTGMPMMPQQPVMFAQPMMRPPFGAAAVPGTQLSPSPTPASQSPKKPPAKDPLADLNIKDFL
B3: DnaJ homolog subfamily C member 5 (Homo sapiens), Q9H3Z4 (parent)
chain: B1 chain
partner: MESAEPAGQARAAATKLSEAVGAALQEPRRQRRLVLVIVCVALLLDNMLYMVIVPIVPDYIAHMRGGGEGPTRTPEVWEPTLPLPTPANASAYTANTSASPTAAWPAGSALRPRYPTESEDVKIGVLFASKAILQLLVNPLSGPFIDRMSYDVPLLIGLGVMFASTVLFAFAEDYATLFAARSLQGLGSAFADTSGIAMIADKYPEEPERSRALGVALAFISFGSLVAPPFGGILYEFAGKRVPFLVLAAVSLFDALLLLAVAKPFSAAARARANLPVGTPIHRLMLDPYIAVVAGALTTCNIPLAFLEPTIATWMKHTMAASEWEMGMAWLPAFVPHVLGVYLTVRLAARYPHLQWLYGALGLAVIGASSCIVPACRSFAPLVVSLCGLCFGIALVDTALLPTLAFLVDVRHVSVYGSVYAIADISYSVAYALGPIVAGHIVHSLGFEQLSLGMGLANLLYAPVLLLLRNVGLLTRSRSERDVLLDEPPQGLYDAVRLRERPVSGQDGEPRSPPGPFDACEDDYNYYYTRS
B4: DnaJ homolog subfamily C member 5 (Homo sapiens), Q9H3Z4 (parent)
chain: B1 chain
partner: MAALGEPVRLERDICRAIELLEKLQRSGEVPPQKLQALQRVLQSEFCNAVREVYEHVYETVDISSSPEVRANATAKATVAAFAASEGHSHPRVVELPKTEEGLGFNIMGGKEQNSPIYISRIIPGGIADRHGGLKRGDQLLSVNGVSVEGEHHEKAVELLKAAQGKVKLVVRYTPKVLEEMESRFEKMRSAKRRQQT
B5: DnaJ homolog subfamily C member 5 (Homo sapiens), Q9H3Z4 (parent)
chain: B1 chain
partner: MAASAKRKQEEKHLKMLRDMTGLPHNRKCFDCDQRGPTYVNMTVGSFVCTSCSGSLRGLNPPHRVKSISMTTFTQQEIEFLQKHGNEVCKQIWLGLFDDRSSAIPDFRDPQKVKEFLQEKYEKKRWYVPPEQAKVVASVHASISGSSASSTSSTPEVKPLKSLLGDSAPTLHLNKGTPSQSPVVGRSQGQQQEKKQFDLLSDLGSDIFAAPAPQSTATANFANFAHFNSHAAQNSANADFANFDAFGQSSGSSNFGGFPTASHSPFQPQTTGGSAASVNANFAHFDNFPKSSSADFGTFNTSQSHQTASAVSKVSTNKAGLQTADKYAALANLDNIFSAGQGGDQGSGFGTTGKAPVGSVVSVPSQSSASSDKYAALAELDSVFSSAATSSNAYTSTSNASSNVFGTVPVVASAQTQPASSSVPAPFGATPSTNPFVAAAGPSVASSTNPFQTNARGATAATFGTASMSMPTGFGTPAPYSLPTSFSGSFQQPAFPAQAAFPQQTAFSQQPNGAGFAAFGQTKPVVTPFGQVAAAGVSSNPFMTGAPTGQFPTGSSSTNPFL
B6: DnaJ homolog subfamily C member 5 (Homo sapiens), Q9H3Z4 (parent)
chain: B1 chain
partner: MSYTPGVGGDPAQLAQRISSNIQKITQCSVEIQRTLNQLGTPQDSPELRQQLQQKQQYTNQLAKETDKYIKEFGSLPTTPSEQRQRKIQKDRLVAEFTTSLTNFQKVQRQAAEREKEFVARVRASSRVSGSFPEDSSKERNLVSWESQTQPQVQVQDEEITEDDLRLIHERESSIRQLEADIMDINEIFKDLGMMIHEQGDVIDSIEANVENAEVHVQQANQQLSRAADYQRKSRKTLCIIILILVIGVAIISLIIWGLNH
B7: DnaJ homolog subfamily C member 5 (Homo sapiens), Q9H3Z4 (parent)
chain: B1 chain
partner: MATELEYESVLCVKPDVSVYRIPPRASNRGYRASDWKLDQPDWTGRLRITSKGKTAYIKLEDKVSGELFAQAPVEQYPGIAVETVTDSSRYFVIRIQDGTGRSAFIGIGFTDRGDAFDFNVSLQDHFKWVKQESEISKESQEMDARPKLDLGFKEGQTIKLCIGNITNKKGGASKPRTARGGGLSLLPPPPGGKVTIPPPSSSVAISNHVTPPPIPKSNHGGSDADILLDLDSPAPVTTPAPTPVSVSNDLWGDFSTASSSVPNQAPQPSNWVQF
B8: DnaJ homolog subfamily C member 5 (Homo sapiens), Q9H3Z4 (parent)
chain: B1 chain
partner: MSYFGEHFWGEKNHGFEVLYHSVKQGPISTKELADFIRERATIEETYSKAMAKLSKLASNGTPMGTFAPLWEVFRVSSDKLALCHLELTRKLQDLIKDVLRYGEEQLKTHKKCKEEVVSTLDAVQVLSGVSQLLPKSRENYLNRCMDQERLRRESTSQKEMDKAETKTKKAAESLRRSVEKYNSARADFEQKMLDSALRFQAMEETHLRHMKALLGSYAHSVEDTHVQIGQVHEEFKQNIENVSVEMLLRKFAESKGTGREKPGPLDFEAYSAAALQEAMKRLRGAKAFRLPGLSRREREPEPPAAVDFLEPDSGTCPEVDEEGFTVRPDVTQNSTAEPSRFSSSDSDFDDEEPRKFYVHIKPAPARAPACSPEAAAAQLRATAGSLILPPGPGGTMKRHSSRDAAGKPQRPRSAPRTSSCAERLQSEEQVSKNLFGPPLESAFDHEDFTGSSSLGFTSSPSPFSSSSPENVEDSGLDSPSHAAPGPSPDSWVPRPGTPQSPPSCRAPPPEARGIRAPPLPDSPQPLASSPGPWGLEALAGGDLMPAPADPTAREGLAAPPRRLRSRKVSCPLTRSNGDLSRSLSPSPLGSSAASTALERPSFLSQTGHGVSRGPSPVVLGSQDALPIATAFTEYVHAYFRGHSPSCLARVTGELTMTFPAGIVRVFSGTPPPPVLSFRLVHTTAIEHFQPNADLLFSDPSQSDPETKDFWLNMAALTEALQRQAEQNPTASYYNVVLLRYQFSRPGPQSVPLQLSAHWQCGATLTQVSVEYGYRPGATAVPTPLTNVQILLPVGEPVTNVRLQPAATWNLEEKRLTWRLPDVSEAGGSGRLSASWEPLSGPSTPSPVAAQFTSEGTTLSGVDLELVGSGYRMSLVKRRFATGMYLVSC
B9: DnaJ homolog subfamily C member 5 (Homo sapiens), Q9H3Z4 (parent)
chain: B1 chain
partner: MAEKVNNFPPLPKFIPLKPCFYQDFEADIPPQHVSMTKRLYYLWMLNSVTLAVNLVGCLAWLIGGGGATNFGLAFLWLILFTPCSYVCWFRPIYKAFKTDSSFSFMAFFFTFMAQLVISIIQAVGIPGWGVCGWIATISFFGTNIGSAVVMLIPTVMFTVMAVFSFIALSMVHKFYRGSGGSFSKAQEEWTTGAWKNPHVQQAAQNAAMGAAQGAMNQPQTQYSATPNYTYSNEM
B10: DnaJ homolog subfamily C member 5 (Homo sapiens), Q9H3Z4 (parent)
chain: B1 chain
partner: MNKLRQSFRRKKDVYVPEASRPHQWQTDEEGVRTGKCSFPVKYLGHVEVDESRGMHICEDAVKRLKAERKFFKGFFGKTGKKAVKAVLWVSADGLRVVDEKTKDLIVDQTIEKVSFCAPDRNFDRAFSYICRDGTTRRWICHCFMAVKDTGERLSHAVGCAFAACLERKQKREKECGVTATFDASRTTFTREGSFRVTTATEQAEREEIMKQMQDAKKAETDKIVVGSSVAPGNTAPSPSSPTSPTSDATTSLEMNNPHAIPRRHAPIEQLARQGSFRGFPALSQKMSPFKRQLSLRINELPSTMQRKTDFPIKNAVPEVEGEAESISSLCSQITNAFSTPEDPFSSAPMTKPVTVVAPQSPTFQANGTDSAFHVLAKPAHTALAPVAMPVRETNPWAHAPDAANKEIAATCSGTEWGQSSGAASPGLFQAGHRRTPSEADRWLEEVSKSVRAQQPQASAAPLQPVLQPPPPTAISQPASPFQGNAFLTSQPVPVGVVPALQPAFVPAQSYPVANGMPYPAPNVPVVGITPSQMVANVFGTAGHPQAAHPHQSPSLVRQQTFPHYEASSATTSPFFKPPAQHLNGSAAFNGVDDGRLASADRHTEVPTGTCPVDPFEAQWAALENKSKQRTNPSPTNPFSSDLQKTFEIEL
B11: DnaJ homolog subfamily C member 5 (Homo sapiens), Q9H3Z4 (parent)
chain: B1 chain
partner: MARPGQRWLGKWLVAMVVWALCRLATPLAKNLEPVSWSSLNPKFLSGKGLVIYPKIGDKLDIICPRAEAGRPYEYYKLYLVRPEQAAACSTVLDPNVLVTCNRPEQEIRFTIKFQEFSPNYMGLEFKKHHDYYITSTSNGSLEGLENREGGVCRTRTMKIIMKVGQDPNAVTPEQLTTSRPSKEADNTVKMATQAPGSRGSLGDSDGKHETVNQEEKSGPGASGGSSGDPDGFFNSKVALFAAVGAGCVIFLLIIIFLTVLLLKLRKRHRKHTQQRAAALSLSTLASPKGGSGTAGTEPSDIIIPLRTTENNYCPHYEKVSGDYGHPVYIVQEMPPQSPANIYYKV

Variants of: B1
Conditions: with vglu3_human SLC17A8, Q8NDX2

effect of a mutation on the interaction | Variant
with no effect | L115R

Variants of: B2
Conditions: with ap180_human SNAP91, O60641

effect of a mutation on the interaction | Variant
with no effect | L115R

Variants of: B3
Conditions: with vacht_human SLC18A3, Q16572

effect of a mutation on the interaction | Variant
with no effect | L115R

Variants of: B4
Conditions: with lin7c_human LIN7C

effect of a mutation on the interaction | Variant
with no effect | L115R

Variants of: B5
Conditions: with agfg1_human AGFG1, P52594

effect of a mutation on the interaction | Variant
with no effect | L115R

Variants of: B6
Conditions: with stx7_human STX7, O15400

effect of a mutation on the interaction | Variant
decreasing interaction strength | L115R

Variants of: B7
Conditions: with necp1_human NECAP1, Q8NC96

effect of a mutation on the interaction | Variant
with no effect | L115R

Variants of: B8
Conditions: with fcho1_human FCHO1, O14526

effect of a mutation on the interaction | Variant
decreasing interaction strength | L115R

Variants of: B9
Conditions: with scam5_human SCAMP5, Q8TAC9

effect of a mutation on the interaction | Variant
with no effect | L115R

Variants of: B10
Conditions: with numb_human NUMB

effect of a mutation on the interaction | Variant
with no effect | L115R

Variants of: B11
Conditions: with efnb1_human EFNB1, P98172

effect of a mutation on the interaction | Variant
decreasing interaction strength | L115R
